Source: the DeepSol protein solubility set

Experiment: soluble on expression in E. coli; label from the status in PepcDB or PDB records

| Sequence | soluble on expression in E. coli |
| --- | --- |
| MAHHHHHHMENVAKLQRQNASLKDRVSALEEQLAGATSSLARTGDCEQQISLLIERLGKEKERHKAVAEERNQLKDHLQDLEEEVEEYRTREEGWISGQERQQENEIAAQQRIAQLENDMRSCNAIVDNLTTQLTEAKHLNGVLQNQVKELKVSYSAQLDTVKESSSETVDQLRQEVEQLRSSLQNLSTEYDTRTAELEREVQNANMHAHQAEARLSEMALGSVNTLQDLRSELEDSQRSSATWKAEAQKARHEYTTLLEQYASLKRSRAAAEADLRDRLSYESNTVSALRKGIREWEDRYLALQESVGATQTEIEEQRKTIMQLEATIQKLKASGSDMLSPSQSEVVVSTNAPPVKASFSEPSLSGLPLDEILGRRLMPAPPLNPFMSMERPAWSDSRDRKTRERLEQEVVRQSAELERVRAAVADAEVWKAKYDRLQEEHDLLLQLYGQLEEDVSALRKNGAGILSADAAATSSTSGSVSAAAVP | soluble |
| MINIIGLGPGNLDYITKKGENLISTSDVLIGGKRNLESIKNFEGEKIVLDSNLREIIEYINNNKEKQISIIASGDPLIYGIGRYLSKNIDNKMLNMVSGISSLQYIFSKIYVDMNDVYITSSHGKVPDFDYILSHKKVCMVTDSKIGPKQISREIIDRNLNKIIVVGENLSYDNEKITIAKPEEIIRIDNFDMNVVVILDEE | not soluble |
| MGSDKIHHHHHHMRWGGASPIEATVRDLSLSRIYMRVTGDSLSTNAQDCPSSEILRIAVVSSPRSGNSWIRSTLAGALSMQEIAIHNYLDAPAVLPQRCFLQIHWYREPNFQAWLRENQFRVLTVARHPLDVLVSALHYIRYEPGTSRWLEGNVKLPGELANASPSSPEFLEYALGMGAEDLLSITYQWWNDPEVLRLRYEDAVANPEVVLGNQIAALGGSAQDVVPWLARLSIDKMRATPNRHGWQGSPGLWRRLIVPQDAIRIYRRHRRIFDTLGYTIRPYFLTRASAYRNWMERL | not soluble |
| MGSDKIHHHHHHMTHLDDMALFVEVVKAKGFRGAADALGMPNSTLSRRIGALEKAIGLRLLHRTTRKVEPTEAGLLYYERSKRIVEEARLVHEQLGEMLAQPSGLLRASFPEGFANIFLAPLVAEFARRYPGIRFEFDLSPRLADLVSDPVDVAIRMGEPANSNLIARQLARLPRHLYASPRYLDMLGEPQHPDELVQHECLRLRGSKSDIWTVQNRDETVDVAVGGRFLLNSVGMIQRLAALDMGIAILAESIVTDDVAQGRLRRVLPQWEATPVPVYALTETRLLPAKTQRFIDFLREHLSSI | not soluble |
| MNPAALSAFTRSLLFNRCSTSSFCNSITRNAVAFFATAAATPKINVNVGTIGHIDHGKTTLTSAITRVQAKKGFAKHIKFDEIDKGKEEKKRGITINVAHIGYESPLRRYSHTDCPGHSDFIKNMICGTSQMDVAVLVIAATDGVMEQTKEHLILAKQVGVKNMAIFINKADLVEEDDLDLVEMEARELLSLHGFNGDATPVIRGSALSALEGQDISCIERLIDALDSLPEPDRNEKDTFVMPIASKTAITGRGTVIVGTLERGVLKKGDKVEIKGDGQTLQTTASDIQVFGKSVKEVRAGDHCGVLCRGVKGDTVKRGMWAGHPGAVTITNRVKVELYLLSEAENGRKIGIRTGFTDKMYCSTWDQVGRFDMSNELLMPGEHTSATVLLMKDMPLRKGMPFTLREGSSKTTIARGIISDLEDHVAVEKHNLKKSAEKM | not soluble |
| MSLNIISVGVNHKTAPIEIRERIALSEVQNKELVTDLVSSGLASEAMVVSTCNRTELYVVPGMPEVNCDYLKDYIISYKNARNAVRPEHFFSRFYCGTARHLFEVSCAIDSLVLGEGQILGQVKNAYRIAAEVGTAGILLTRLCHTAFSVAKKVKTRTKLMEGAVSVSYAAVELAQKIFSNLSMKKVLLIGAGETGELAAKHMYAKNARNIVITNRTQSKAEALAEELGTNRVLPYESYKEHLHEFDIIITAVSTKEYILNAAEMQQSMAKRRLKPVIILDLGLPRNVDPEVGALQNMFLKDIDALKHIIDKNLERRRAELPKVKAIIDEELVAFGQWLNTLKVRPTIVDLQSKEGHHHHHH | soluble |
| MSDPSSINGGIVVAMTGKDCVAIACDLRLGSQSLGVSNKFEKIFHYGHVFLGITGLATDVTTLNEMFRYKTNLYKLKEERAIEPETFTQLVSSSLYERRFGPYFVGPVVAGINSKSGKPFIAGFDLIGCIDEAKDFIVSGTASDQLFGMCESLYEPNLEPEDLFETISQALLNAADRDALSGWGAVVYIIKKDEVVKRYLKMRQD | soluble |
| MSRRAPMFKPLPITLQRGALRLEPLVEADIPELVSLAEANREALQYMDGPTRPDWYRQSLAEQREGRALPLAVRLGVQLVGTTRFAEFLPALPACEIGWTWLDQAQHGSGLNRMIKYLMLKHAFDNLRMVRVQLSTAASNLRAQGAIDKLGAQREGVLRNHRRLAGGRLDDTFVYSITDHEWPQVKAALEASFTG | soluble |
| MTWLDEKGRFAIYEAPQNCPYLGTIGTCYEFGSLPVILMFPELEKLFLKLLISYVRNDGYVPHDLGFHSLDSPIDGTTSPPKWKDMNPSLILLVYRYFKFTNDIDFLKEVYPTIVKVMDWELRQCRDGLPFMEGEMDNAFDATIIKGHDSYTSSLFIASLIAMREIAKLVGDSNYVGFINEKLNVAREAFRKMFNGKYFKAWDGVDKASFLAQLYGEWFTTLLELENIVDENMIKSALESIIRLNGNASPYCVPNLVDENGKIVNLSVQTYSSWPRLVFAICWLAYKKGVGDLSFCKKEWDNLVRNGMVWDQPSRINCYTGKPEINYLDHYVGSPSLWSFLFLEHHHHHH | not soluble |
| MGSDKIHHHHHHVALAIPQIHAHEHSDEQLMQRYAQGDSQAFEQLYLKHKGALYRYFVRQLGDKQLAEDLYQETWGRVIRAAVNYQVSAKFSTWLYRIAHNLLIDHVRAVKPVDFIASDTDVTGLDTFEGCDQDKPDIHWQEAQKSLLLKTCISLLPQVQKEAFILNIEMGFTAAMISDIAGVTLEATKSRIRYAYQSLKECVNAKWQEAGHE | not soluble |
| MGSDKIHHHHHHVTSLISVKRLNKSFPGVRALHEVQFELMAGEVHALMGENGAGKSTLMKILAGVYTRDSGEILYDGQPVEFLSPRDAQAVGVGIIHQELQLMNHLTVAQNIFIGREPRGRLGLLLDEDRLNAQAAAILARMHVSLDPRAVVGALTVARQQMVEIAKALSFDSRVLIMDEPTSALNDAEIAELFRIIRELKSRGVGIVYISHKMDELKQIADRVTVMRDGEYVATVAARDTSVEAIIGMMVGRTLTDIAPSHSVADQGEIALEVRNLNAGPLVRDVSFALRKGEILGFAGLMGAGRTEVARAVFGADPVESGEIVVNGARATIRTPSDAVAHGIGYLSEDRKRFGLATGMDVESNIVMSNLRKFLSLNFFLRRAQIRRTASHFISLLGIRTPSATQAVRLLSGGNQQKIVIAKWLERDCDVLFFDEPTRGIDVGAKNEIYKLLRSLAGEGKAVVMISSELPEILRMSDRVIVMCEGRITGELSAAEATQERIMHLATRRETLKTAA | not soluble |
| MPETELHVIFDQPNEVFFPGQPISGRVVLSTTEEKYKARAVNIKILGLAHTSWTDYDSVRRVDNDGNVRYDSESVHYSSNVHYLDQALLLWACKDGSNELSAGDYVWPFSYTLPLNVPPSFEGKYGYLRYSVTAEVDRPWRLDKAKRRCITVSPLIDLNAIPLALTPIDDEESENLGCCFFRKGYLELRVNIPKTGFVPGETVPMNIHILNHSSVPVTEVKAKIIQQCKFIAYRNGTIFRFDGGSDTLMSGSSQQTKYDTKPVITQTQPMTVTPGNEHKFVLEFRLPSVTPTICRFSPVITVEYVVQVRVETTSTCGSAAKCEMPILIGTVPIRNYLPPPIPNNYPIGLPPPYANLTDVNVPCPSGGSGTAVIPSAPPPSYQESMYGVGGTELRAEENEKPFAPKYPVFNNLPIYNPTAPPSE | not soluble |
| MGKFLVQFWGVRGLIPTPSSNTSRYGGNTACVEMQVAGKRLIFDGGTGLRILGKAWQHLQQPLEAHLFFTNSQSNRIQGFPFFAPAFIAGNCFHIYGGAASNGASIKQCLCDQMLQPHFPYPLQVMQSELQFYPLTPDSEVKLDDVTIRTALINQTQRSIGYRVTWQEYSVAYVTDLNMSAEQGEREQVLQIIQDVDLLIANATYTPPTSHDHESVDLLWQAAVEMAQKAGVRKLIISHHHPDDHDDFLDQVEKEVQSTFSDALLACEGLALPVFLEHHHHHH | not soluble |
| MGSDKIHHHHHHMSSVSLQDFDAERIGLFHEDIKRKFDELKSKNLKLDLTRGKPSSEQLDFADELLALPGKGDFKAADGTDVRNYGGLDGIVDIRQIWADLLGVPVEQVLAGDASSLNIMFDVISWSYIFGNNDSVQPWSKEETVKWICPVPGYDRHFSITERFGFEMISVPMNEDGPDMDAVEELVKNPQVKGMWVVPVFSNPTGFTVTEDVAKRLSAMETAAPDFRVVWDNAYAVHTLTDEFPEVIDIVGLGEAAGNPNRFWAFTSTSKITLAGAGVSFFLTSAENRKWYTGHAGIRGIGPNKVNQLAHARYFGDAEGVRAVMRKHAASLAPKFNKVLEILDSRLAEYGVAQWTVPAGGYFISLDVVPGTASRVAELAKEAGIALTGAGSSYPLRQDPENKNLRLAPSLPPVEELEVAMDGVATCVLLAAAEHYAN | not soluble |
| MARPRKPLLSTDRIVETARALVDAEGLAAVSTRRLAAELGVSGPSLYNHFRTKDEILEAVADSVSAQVDLSMFEDGREWRTALHDWAVSYRTALRDHPNIVPVLAHGPGRRPAALHLADAVYGAMVRAGWPAAQATSIGALMRYFVMGSALGSFAGGFVDDAGAYDPADYPHLQQAHLLAEQQEKIDERAFETGLTALLDGLAQQYAQVAQGV | not soluble |
| MVHYYRLSLKSRQKAPKIVNSKYNSILNIALKNFRLCKKHKTKKPVQILALLQEIIPKSYFGTTTNLKRFYKVVEKILTQSSFECIHLSVLHKCYDYDAIPWLQNVEPNLRPKLLLKHNLFLLDNIVKPIIAFYYKPIKTLNGHEIKFIRKEEYISFESKVFHKLKKMKYLVEVQDEVKPRGVLNIIPKQDNFRAIVSIFPDSARKPFFKLLTSKIYKVLEEKYKTSGSLYTCWSEFTQKTQGQIYGIKVDIRDAYGNVKIPVLCKLIQSIPTHLLDSEKKNFIVDHISNQFVAFRRKIYKWNHGLLQGDPLSGCLCELYMAFMDRLYFSNLDKDAFIHRTVDDYFFCSPHPHKVYDFELLIKGVYQVNPTKTRTNLPTHRHPQDEIPYCGKIFNLTTRQVRTLYKLPPNYEIRHKFKLWNFNNQISDDNPARFLQKAMDFPFICNSFTKFEFNTVFNDQRTVFANFYDAMICVAYKFDAAMMALRTSFLVNDFGFIWLVLSSTVRAYASRAFKKIVTYKGGKYRKVTFQCLKSIAWRAFLAVLKRRTEIYKGLIDRIKSREKLTMKFHDGEVDASYFCKLPEKFRFVKINRKASI | soluble |
| VNQQQLQQLMDMGFTREHAMEALLNTSTMEQATEYLLTHP | soluble |
| MALVKIVRIETFPLFHRLEKPYGDANGFKRYRTCYLIRIITESGIDGWGECVDWLPALHVGFTKRIIPFLLGKQAGSRLSLVRTIQKWHQRAASAVSMALTEIAAKAADCSVCELWGGRYREEIPVYASFQSYSDSPQWISRSVSNVEAQLKKGFEQIKVKIGGTSFKEDVRHINALQHTAGSSITMILDANQSYDAAAAFKWERYFSEWTNIGWLEEPLPFDQPQDYAMLRSRLSVPVAGGENMKGPAQYVPLLSQRCLDIIQPDVMHVNGIDEFRDCLQLARYFGVRASAHAYDGSLSRLYALFAQACLPPWSKMKNDHIEPIEWDVMENPFTDLVSLQPSKGMVHIPKGKGIGTEINMEIVNRYKWDGSAYEGHHHHHH | soluble |
| MSLDDLQSIRESREIRIAMSGQYSPFSFANEQNQIVGFDASISEALAQRLGVKVSIVTTPFDGIIAGLLAKKYDAIIASMTITPERLRAVDFVGPYYHAGRTIVVKEDSPINSLADLKDVTVGVTLGDAHDKWARARGNLKVKTYKGLPEMLVDLEAGRLDALVMDSVPVLVAVKETGQKVRIITPPDSDGGVEGMGIALRKNNPELKAAMQQALNDMLADGSYEKISMKWIGKDIREGHHHHHH | soluble |
